Assays:
[1] = tested on: IFNAR1; experiment: IFNAR1 protein level, immunoblot, HEK-293T cells; type: cell-based, human; details: HEK-293T, rLRPAP1 200 nM, α2M 20 nM, 1 h
[2] = tested on: HSV-1; experiment: HSV-1 infection of RD cells (viral DNA, TCID50, viral protein, CPE); details: α2M 20 nM, added 3 h post infection MOI 10, 21 h
[3] = tested on: HBV; experiment: HBV level in HepAD38 cells, immunoblot; type: cell-based; details: α2M 20 nM, 24 h
[4] = tested on: HCoV-OC43; experiment: HCoV-OC43 infection of RD cells (viral RNA, TCID50, CPE); details: α2M 20 nM pre-treatment 1 h, MOI 1, 72 h
[5] = tested on: IFNAR1; experiment: IFNAR1 protein level, immunoblot / immunofluorescence, RD cells; type: cell-based; details: EV71 or HSV-1 MOI 10; α2M 20 nM, LF 400 nM
[6] = tested on: DNA and RNA viruses; experiment: Antiviral effect against DNA and RNA viruses (summary); type: cell-based; details: dosages within the biosafety range (<1.5 mg/100 ml)
Procedure: Fig. 6 Inhibition of extracellular LRPAP1 reinforces the host cell’s innate immunity against multiple viruses’ infection. a–c RD cells were transfected with scramble siRNA or siLRPAP1 for 24 h. Then the cells were infected with HCoV-OC43 at an MOI of 1 for 72 h or HSV-1 at the indicated MOI for 24 h. Viral RNA level of HCoV-OC43 was analysed by RT-qPCR (a). Viral titer of HCoV-OC43 was measured by TCID50 assay (b). The relative viral DNA level of HSV-1 was analysed by RT-qPCR (c). d Immunoblots of lysates in HepAD38 cells transfected with scramble siRNA or siLRPAP1 for 48 h. e RD cells were transfected with scramble siRNA or siLRPAP1-1/-2 (si-1, si-2) for 24 h. Then the cells were infected with ZIKV at an MOI of 1 for 24 h. Viral RNA level of ZIKV was analysed by RT-qPCR. f, g The inhibitory effect of anti-LRPAP1 for HSV-1 infection. […] Densitometric analysis of VP1 levels in Fig. 6(i) was quantified and normalized with GAPDH using ImageJ (j). Densitometric analysis of HSV Envelope levels in Fig. 6(k) was quantified and normalized with GAPDH using ImageJ (l). m The schematic diagram of virus circumventing type I IFN signaling through LRPAP1.
a, The effect of siLRPAP1 on the infection of HCoV-OC43. […] Viral RNA level of HCoV-OC43 was analysed by RT-qPCR. b, RD cells were transfected with scramble siRNA or siLRPAP1 for 24 h, and cells were then inoculated with HCoV-OC43 at an MOI of 1 for 72 h. […]

[7] = tested on: EV71; experiment: EV71 infection of RD cells (viral RNA, titer, viral protein, CPE); details: α2M 20 nM, added 3 h post infection MOI 10, 6 h
[8] = tested on: IFNAR1; experiment: IFNAR1 protein level, HepAD38 cells, immunoblot; type: cell-based; details: siRNA or overexpression 48 h; LF 400 nM 24 h

B1: alpha-2-macroglobulin (protein, UniProt P01023 24-1474, looked up)
Alpha-2-macroglobulin: SVSGKPQYMVLVPSLLHTETTEKGCVLLSYLNETVTVSASLESVRGNRSLFTDLEAENDVLHCVAFAVPKSSSNEEVMFLTVQVKGPTQEFKKRTTVMVKNEDSLVFVQTDKSIYKPGQTVKFRVVSMDENFHPLNELIPLVYIQDPKGNRIAQWQSFQLEGGLKQFSFPLSSEPFQGSYKVVVQKKSGGRTEHPFTVEEFVLPKFEVQVTVPKIITILEEEMNVSVCGLYTYGKPVPGHVTVSICRKYSDASDCHGEDSQAFCEKFSGQLNSHGCFYQQVKTKVFQLKRKEYEMKLHTEAQIQEEGTVVELTGRQSSEITRTITKLSFVKVDSHFRQGIPFFGQVRLVDGKGVPIPNKVIFIRGNEANYYSNATTDEHGLVQFSINTTNVMGTSLTVRVNYKDRSPCYGYQWVSEEHEEAHHTAYLVFSPSKSFVHLEPMSHELPCGHTQTVQAHYILNGGTLLGLKKLSFYYLIMAKGGIVRTGTHGLLVKQEDMKGHFSISIPVKSDIAPVARLLIYAVLPTGDVIGDSAKYDVENCLANKVDLSFSPSQSLPASHAHLRVTAAPQSVCALRAVDQSVLLMKPDAELSASSVYNLLPEKDLTGFPGPLNDQDNEDCINRHNVYINGITYTPVSSTNEKDMYSFLEDMGLKAFTNSKIRKPKMCPQLQQYEMHGPEGLRVGFYESDVMGRGHARLVHVEEPHTETVRKYFPETWIWDLVVVNSAGVAEVGVTVPDTITEWKAGAFCLSEDAGLGISSTASLRAFQPFFVELTMPYSVIRGEAFTLKATVLNYLPKCIRVSVQLEASPAFLAVPVEKEQAPHCICANGRQTVSWAVTPKSLGNVNFTVSAEALESQELCGTEVPSVPEHGRKDTVIKPLLVEPEGLEKETTFNSLLCPSGGEVSEELSLKLPPNVVEESARASVSVLGDILGSAMQNTQNLLQMPYGCGEQNMVLFAPNIYVLDYLNETQQLTPEIKSKAIGYLNTGYQRQLNYKHYDGSYSTFGERYGRNQGNTWLTAFVLKTFAQARAYIFIDEAHITQALIWLSQRQKDNGCFRSSGSLLNNAIKGGVEDEVTLSAYITIALLEIPLTVTHPVVRNALFCLESAWKTAQEGDHGSHVYTKALLAYAFALAGNQDKRKEVLKSLNEEAVKKDNSVHWERPQKPKAPVGHFYEPQAPSAEVEMTSYVLLAYLTAQPAPTSEDLTSATNIVKWITKQQNAQGGFSSTQDTVVALHALSKYGAATFTRTGKAAQVTIQSSGTFSSKFQVDNNNRLLLQQVSLPELPGEYSMKVTGEGCVYLQTSLKYNILPEKEEFPFALGVQTLPQTCDEPKAHTSFQISLSVSYTGSRSASNMAIVDVKMVSGFIPLKPTVKMLERSNHVSRTEVSSNHVLIYLDKVSNQTLSLFFTVLQDVPVRDLKPAIVKVYDYYETDEFAIAEYNAPCSKDLGNA
IFNAR1 level in cells treated with rLRPAP1 [1]: markedly upregulated IFNAR1
HSV-1 propagation (Envelope) [2]: significantly inhibited both DNA and RNA virus propagation
HBV propagation (HBc) [3]: significantly inhibited both DNA and RNA virus propagation
HCoV-OC43 propagation [4]: significantly inhibited both DNA and RNA virus propagation
IFNAR1 level under viral infections [5]: markedly upregulated IFNAR1
antiviral effect [6]: promising antiviral effects
EV71 propagation (VP1) [7]: significantly inhibited both DNA and RNA virus propagation

B2: lactoferrin (protein, UniProt P02788 20-710, looked up)
Lactotransferrin: GRRRSVQWCAVSQPEATKCFQWQRNMRKVRGPPVSCIKRDSPIQCIQAIAENRADAVTLDGGFIYEAGLAPYKLRPVAAEVYGTERQPRTHYYAVAVVKKGGSFQLNELQGLKSCHTGLRRTAGWNVPIGTLRPFLNWTGPPEPIEAAVARFFSASCVPGADKGQFPNLCRLCAGTGENKCAFSSQEPYFSYSGAFKCLRDGAGDVAFIRESTVFEDLSDEAERDEYELLCPDNTRKPVDKFKDCHLARVPSHAVVARSVNGKEDAIWNLLRQAQEKFGKDKSPKFQLFGSPSGQKDLLFKDSAIGFSRVPPRIDSGLYLGSGYFTAIQNLRKSEEEVAARRARVVWCAVGEQELRKCNQWSGLSEGSVTCSSASTTEDCIALVLKGEADAMSLDGGYVYTAGKCGLVPVLAENYKSQQSSDPDPNCVDRPVEGYLAVAVVRRSDTSLTWNSVKGKKSCHTAVDRTAGWNIPMGLLFNQTGSCKFDEYFSQSCAPGSDPRSNLCALCIGDEQGENKCVPNSNERYYGYTGAFRCLAENAGDVAFVKDVTVLQNTDGNNNEAWAKDLKLADFALLCLDGKRKPVTEARSCHLAMAPNHAVVSRMDKVERLKQVLLHQQAKFGRNGSDCPDKFCLFQSETKNLLFNDNTECLARLHGKTTYEKYLGPQYVAGITNLKKCSTSPLLEACEFLRK
IFNAR1 expression in HepAD38 cells [8]: but not LF
IFNAR1 level under viral infections [5]: but not LF
